Data as given in PMC8231783.

Biological target: transient receptor potential (TRP) channels
Assay: SPR; plasmonic tilted fiber Bragg grating (fiber-optic SPR) probe; TRP immobilised on the 50 nm gold film through 11-mercaptoundecanoic acid and EDC/NHS; CaM (0.1 nM to 10 uM) injected in a microfluidic capillary; 50 mM Tris-HCl, 100 mM NaCl, 1 mM DTT, 1 mM CaCl2, pH 7.5; read-out is the intensity change of a cladding mode

Substance: calmodulin (from UniProt P0DP23 1-149) (natural protein)
- intensity change of the selected cladding mode at 1 uM CaM, 30 min: 1.7 dB
